Changes are numbered by the printed parent chain.
B1: first version of humanized R3 antibody (R3-huVH(a) with R3-huVK) (antibody, human IgG1, V domains shown)
VH: QVQLQQSGAEVKKPGSSVKVSCKASGYTFTNYYIYWVRQAPGQGLEWIGGINPTSGGSNFNEKFKTRVTITVDESTNTAYMELSSLRSEDTAFYFCARQGLWFDSDGRGFDFWGQGSTVTVSS
VL: DIQMTQSPSSLSASVGDRVTITCRSSQNIVHSNGNTYLDWYQQTPGKAPKLLIYKVSNRFSGVPSRFSGSGSGTDFTFTISSLQPEDIATYYCFQYSHVPWTFGQGTKLQITR
notes: R3 CDRs grafted on human Eu (VH) and REI (VK) frameworks; human IgG1 / kappa constant regions; also called humanized (1) R3; version 1
B2: reshaped R3VH-K66A67 with huVKR3 (antibody, V domains shown)
VH: B1 VH with R67K, V68A
VL: DIQMTQSPSSLSASVGDRVTITCRSSQNIVHSNGNTYLDWYQQTPGKAPKLLIYKVSNRFSGVPSRFSGSGSGTDFTFTISSLQPEDIATYYCFQYSHVPWTFGQGTKLQIT
notes: Human IgG1 / kappa; also called 66 and 67 changes
B3: hybrid humanized R3VH/murine R3VK (antibody, V domains shown)
VH: B1 VH
VL: DVLMTQIPLSLPVSLGDGASISCRSSQNIVHSNGNTYLDWYLQKPGQSPNLLIYKVSNRFSGVPDRFRGSGSGTDFTLKISRVEAEDLGVYYCFQYSHVPWTFGGGTKLEIK
notes: Human gamma-1 and kappa constant regions; tested as concentrated supernatant of transfected NSO cells; The hybrid was made before the further VH versions, so its humanized VH is read as the first version

Columns and labels:
[1] = molecular target: T1, human epidermal growth factor receptor (human, UniProt P00533 25-1210); assay: RRA, 125I-EGF competition on human placenta microsomal fraction
T1 construct: whole, on cells; also called EGF-R; EGF receptor

[2] = molecular target: T1, human epidermal growth factor receptor; assay: RRA, concentrated supernatants of transfected NSO cells

| Binder | binding result [1] | binding result [2] |
| --- | --- | --- |
| B1 | no binding | – |
| B2 | no binding | – |
| B3 | – | no binding |
